In publication PMC4177983:

Target: SF162 soluble Env gp140 trimer (HIV-1 isolate SF162 (clade B))
Test: SPR; 1273 RUs of SF162 gp140 trimer amine-coupled on a CM5 chip; dual injection, 3 µM 4E10 Fv flowed 5 minutes before and during 10 nM Fab b12 or 447-52D; HBS-EP+, 25°C

4E10 Fv
response bound at 3 µM 4E10 Fv: 90 RUs
